For assay [1], the target named is native tubulin purified from porcine brain, polymerised to microtubules (MTs) (porcine). Description: co-sedimentation.
Assay [2] shares this target. The assay can be described thus: total internal reflection fluorescence microscopy.
The target is the same in assay [3]. Description: co-sedimentation. This is another data set of the same source.
For assay [4] the target is unchanged. Description: co-sedimentation. This is another data set of the same source.

B1: Cdt1^410-546 (N-terminal GFP fusion) (domain or fragment)
chain: ASPSALKGVSQDLLERIRAKEAQKQLAQMTRCPEQEQRLQRLERLPELARVLRSVFVSERKPALSMEVACARMVGSCCTIMSPGEMEKHLLLLSELLPDWLSLHRIRTDTYVKLDKAADLAHITARLAHQTRAEEGL
Consider B1, for which the reduction of MT binding against Cdt1^92-546 in assay [1] amounted to 50%.

B2: full-length (FL) Cdt1^1-546, untagged (natural protein)
chain: MEQRRVTDFFARRRPGPPRIAPPKLACRTPSPARPALRAPASATSGSRKRARPPAAPGRDQARPPARRRLRLSVDEVSSPSTPEAPDIPACPSPGQKIKKSTPAAGQPPHLTSAQDQDTISELASCLQRARELGARVRALKASAQDAGESCTPEAEGRPEEPCGEKAPAYQRFHALAQPGLPGLVLPYKYQVLAEMFRSMDTIVGMLHNRSETPTFAKVQRGVQDMMRRRFEECNVGQIKTVYPASYRFRQERSVPTFKDGTRRSDYQLTIEPLLEQEADGAAPQLTASRLLQRRQIFSQKLVEHVKEHHKAFLASLSPAMVVPEDQLTRWHPRFNVDEVPDIEPAALPQPPATEKLTTAQEVLARARNLISPRMEKALSQLALRSAAPSSPGSPRPALPATPPATPPAASPSALKGVSQDLLERIRAKEAQKQLAQMTRCPEQEQRLQRLERLPELARVLRSVFVSERKPALSMEVACARMVGSCCTIMSPGEMEKHLLLLSELLPDWLSLHRIRTDTYVKLDKAADLAHITARLAHQTRAEEGL
In general, Kd refers to a measure of binding affinity in units of concentration. Low readings indicate tighter binding, high ones weaker binding. B2 gave a Kd in assay [1] of 2290 nM.

B3: Cdt1^92-546 (human Cdt1 devoid of the N-terminal 92 aa, N-terminal GFP fusion) (domain or fragment)
chain: PSPGQKIKKSTPAAGQPPHLTSAQDQDTISELASCLQRARELGARVRALKASAQDAGESCTPEAEGRPEEPCGEKAPAYQRFHALAQPGLPGLVLPYKYQVLAEMFRSMDTIVGMLHNRSETPTFAKVQRGVQDMMRRRFEECNVGQIKTVYPASYRFRQERSVPTFKDGTRRSDYQLTIEPLLEQEADGAAPQLTASRLLQRRQIFSQKLVEHVKEHHKAFLASLSPAMVVPEDQLTRWHPRFNVDEVPDIEPAALPQPPATEKLTTAQEVLARARNLISPRMEKALSQLALRSAAPSSPGSPRPALPATPPATPPAASPSALKGVSQDLLERIRAKEAQKQLAQMTRCPEQEQRLQRLERLPELARVLRSVFVSERKPALSMEVACARMVGSCCTIMSPGEMEKHLLLLSELLPDWLSLHRIRTDTYVKLDKAADLAHITARLAHQTRAEEGL
Broadly, the kon is the second-order rate constant of association. A low value points to slower complex formation. B3: in assay [2], the equilibrium dissociation constant (Kd) came out at 460 nM, the dwell time is 2.37 s and the kon is 1070 M⁻¹ s⁻¹. Moreover, the Kd in assay [3] stood at 1850 nM. In assay [1], the Kd amounted to 2200 nM and the binding left in the presence of 250 mM NaCl is 50%. This molecule yielded a dissociation constant Kd in assay [4] of 2030 nM.

B4: Cdt1^92-546 8D (Aurora B phosphomimetic mutant) (domain or fragment)
chain: PSPGQKIKKDDPAAGQPPHLTSAQDQDTISELASCLQRARELGARVRALKADAQDAGESCTPEAEGRPEEPCGEKAPAYQRFHALAQPGLPGLVLPYKYQVLAEMFRSMDTIVGMLHNRSETPTFAKVQRGVQDMMRRRFEECNVGQIKTVYPASYRFRQERSVPTFKDGTRRDDYQLDIEPLLEQEADGAAPQLDASRLLQRRQIFSQKLVEHVKEHHKAFLASLSPAMVVPEDQLDRWHPRFNVDEVPDIEPAALPQPPATEKLDTAQEVLARARNLISPRMEKALSQLALRSAAPSSPGSPRPALPATPPATPPAASPSALKGVSQDLLERIRAKEAQKQLAQMTRCPEQEQRLQRLERLPELARVLRSVFVSERKPALSMEVACARMVGSCCTIMSPGEMEKHLLLLSELLPDWLSLHRIRTDTYVKLDKAADLAHITARLAHQTRAEEGL
For the molecule B4, the Kd in assay [4] is 5500 nM.

These data come from paper doi:10.1101/194993.
